Results on two substances are retold here after patent US9163330B2, “Bifunctional stapled polypeptides and uses thereof” (President and Fellows of Harvard College, priority 2009, dated 2015).

Positions of bridges follow the written chain, without caps; N, C: chain ends. Non-standard residues stand in square brackets, D forms with d. No end group written: not given here. S5 = C=CCCC[C@](C)(N)C(=O)O; βAla = NCCC(=O)O

This series deals with Hela cells. The series is described as follows: Confocal microscopy of Hela cells treated with FITC-conjugated SID-series peptides. It is filed as cell-based. Conditions: FITC-conjugated peptide, 10 μM, 6 hours, 37° C. The protocol: HeLa cells were grown on chamber slides overnight. 10 mM FITC-SID peptides in DMSO stock solutions were diluted in cell media to a final concentration of 10 μM, along with a 10 μM DMSO control. Cells were incubated in peptide/vehicle solutions at 37° C. for 6 hours, then washed thoroughly with media and PBS, and fixed with 4% paraformaldehyde. Slides were stained with Vectashield™ Hardset with DAPI. Images were taken with a Zeiss 710 confocal microscope.

For “βAla-VRRRI*MLL*AANYLER ([βAla]VRRRI[S5]MLL[S5]AANYLER; staple 7-11) [SID2]”, the cellular penetration entry was “robust cellular penetration”. With “βAla-VRRRIQMLLEAANK*ERR*R ([βAla]VRRRIQMLLEAANK[S5]ERR[S5]R; staple 16-20) [SID5]”, the cellular penetration result was “robust cellular penetration”.
